In paper PMC8725159, “CryoEM analysis of small plant biocatalysts at sub-2 Å resolution” (Acta Crystallographica. Section D, Structural Biology, 2022):
Several values for one entry are separate records, joined by “and”; a condition that tells them apart may be missing. Equal values may be shown once.

B1: borneol dehydrogenase 2 from Salvia officinalis (SoBDH2) (enzyme)
chain: MATGAANVESPQSLPLRLLGRVALVTGGSSGIGESIVLLFRKHGAKVCIADVQDNQGQRLCETLGGSSDIAFCHCDVTIEDDVKRAVDFTVDKFGTLDIMVNNAGVSGPPCPDIRDFELSAFDRVFDINVRGVFIGMKHAARIMIPAKKGSIISISSVASTMGGLGPHAYTGSKHAVLGLTKNVAAELGKHGIRVNCVSPYAVATSLALAHLPEAERTEDTWDDFRRFVADNANLQGVELTMEDVANAVVFLASDEARYVSGMNLMVDGGFTSTNHALQVFRP
notes: borneol-type dehydrogenase SoBDH2 from Salvia officinalis, GenBank MT525099; synthetic gene codon-optimized for E. coli; theoretical molecular mass with the His6 tag 32.2 kDa; Homotetramer with D2 symmetry in cryoEM; also called Salvia officinialis borneol dehydrogenase 2; source: E. coli BL21-RIL, purified (Ni-NTA, SEC); not shown: His6, N-terminal, kept

Columns and labels:
[1] = biological target: borneol dehydrogenase 1 from Salvia rosmarinus (SrBDH1) (Salvia rosmarinus); test: SEC-MALS; Superdex 200 Increase 10/300 column, 18°C, miniDAWN TREOS detector with refractive-index detector
[2] = biological target: borneol dehydrogenase 1 from Salvia rosmarinus (SrBDH1) (Salvia rosmarinus); test: cryo-EM structure; single-particle cryoEM, 1 mg/ml on UltrAuFoil R1.2/1.3 grids, Titan Krios 300 kV, Falcon 3EC, D2 symmetry imposed
[3] = biological target: the molecule itself; test: SEC-MALS; Superdex 200 Increase 10/300 column, 18°C, miniDAWN TREOS detector with refractive-index detector

Molecule	stoichiometry N [1]	stoichiometry N [2]	stoichiometry N [3]
borneol dehydrogenase 1 from Salvia rosmarinus (SrBDH1) (enzyme)	4	4	–
B1	–	–	8 and 4
